Reference: article PMC8530227

Biological target: Get3^BDP•TA targeting complex (Get3 dimer with the model tail-anchored substrate 3xStrep-SUMOnc-Bos1-opsin) (yeast | not stated) (UniProt Q12154)
Test: FRET or BRET

Chain of Get3^BDP•TA targeting complex (Get3 dimer with the model tail-anchored substrate 3xStrep-SUMOnc-Bos1-opsin) (yeast | not stated) (Q12154 whole entry, chain 1 of 2): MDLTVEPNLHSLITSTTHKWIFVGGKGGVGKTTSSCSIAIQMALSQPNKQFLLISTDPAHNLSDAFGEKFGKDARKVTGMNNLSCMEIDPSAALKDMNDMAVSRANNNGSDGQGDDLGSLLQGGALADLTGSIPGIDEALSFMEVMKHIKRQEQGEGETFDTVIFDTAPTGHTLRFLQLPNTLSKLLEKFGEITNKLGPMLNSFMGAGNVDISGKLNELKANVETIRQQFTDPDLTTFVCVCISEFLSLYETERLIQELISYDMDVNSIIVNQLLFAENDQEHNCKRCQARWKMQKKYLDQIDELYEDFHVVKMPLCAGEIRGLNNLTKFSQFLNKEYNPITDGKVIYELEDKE
Chain of Get3^BDP•TA targeting complex (Get3 dimer with the model tail-anchored substrate 3xStrep-SUMOnc-Bos1-opsin) (yeast | not stated) (P25385 203-244, chain 2 of 2, further chain): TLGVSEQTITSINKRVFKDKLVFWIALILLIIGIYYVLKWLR

Row | Kd [nM] | reduction in donor fluorescence (FRET) [%] | Substance
1 | 7.1 |  | mini-Get1(NR)/2^TMR (from UniProt P53192 20-102; P40056 1-150) (complex)
2 |  | 50 | mini-Get1/2^TMR (mini-Get1/2 labeled with TMR on Get2CD) (from UniProt P53192 20-102; P40056 1-150) (complex)
3 |  | 50 | mini-Get1^TMR/2 (mini-Get1/2 labeled with TMR on Get1CD) (from UniProt P53192 20-102; P40056 1-150) (complex)
